Earlier results as cited in publication PMC13351906.

Molecular target: IL-6 receptor (Homo sapiens) (UniProt P08887)
Experiment: 125I-rhIL-6 radioligand binding

IL-6, sequence (P05231 30-212): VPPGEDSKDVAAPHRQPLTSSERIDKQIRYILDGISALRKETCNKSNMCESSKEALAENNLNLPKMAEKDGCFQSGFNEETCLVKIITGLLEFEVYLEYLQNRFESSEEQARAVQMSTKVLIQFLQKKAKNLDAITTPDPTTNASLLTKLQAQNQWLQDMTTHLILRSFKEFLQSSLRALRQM
UniProt P08887, sequence (P08887 20-365): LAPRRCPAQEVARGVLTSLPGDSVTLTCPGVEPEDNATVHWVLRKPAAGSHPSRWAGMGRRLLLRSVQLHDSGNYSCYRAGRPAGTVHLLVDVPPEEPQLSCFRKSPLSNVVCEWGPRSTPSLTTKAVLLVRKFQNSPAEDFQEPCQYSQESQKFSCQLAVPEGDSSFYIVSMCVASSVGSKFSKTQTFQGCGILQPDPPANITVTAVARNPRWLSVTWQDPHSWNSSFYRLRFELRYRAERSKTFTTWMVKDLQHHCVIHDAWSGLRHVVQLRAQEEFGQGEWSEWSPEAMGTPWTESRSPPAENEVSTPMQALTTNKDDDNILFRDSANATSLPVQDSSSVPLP

Kd: 0.44 nM
Substance: IL-6 (from UniProt P05231)
